Source: the RNAGym collection of RNA variant scans (doi:10.1073/pnas.2313332121)

B1: TPR t1 (parent)
chain: GACCAAUCUGCCCUCAGAGCUCGAGAACAUCUUCGGAUGCAGAGGAGGCAGGCUUCGGUGGCGCGAUAGCGCCAACGUCCUCAACCUCCAAUGCAUCCCACCACAUGAUGAUGCCUGAAGAGCCUUGGUUUUUUG

Variants of: B1
Experiment: polymerase ribozyme fitness, log enrichment relative to wild type (log ratio); higher = more active; in vitro selection for triplet polymerase activity
Outline: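 Only genotypes with ≥10 input reads and ≥1 read per output were kept after Illumina sequencing of input and output libraries. These libraries were PCR-built, transcribed mutants of each subunit of a heterodimeric triplet polymerase ribozyme, each put through one triplicate in vitro selection round with frozen incubation at −7 °C, gel excision of extended constructs, streptavidin-bead capture and RT-PCR. Fitness is a logarithmic ratio of genotype enrichment to wild-type enrichment, from inverse-variance-weighted replicate averages, with the logarithm in base 2.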

| Variant | polymerase ribozyme fitness (log ratio) |
| --- | --- |
| GACCAUUCUGCCCUCAGAGCUCGAGAACAUCUUCGGGUGCAGAGGAGGCAGGCUUUGGUGGCGCGAUAGCGCCAACGUCCUCAACCUCCAAUGCAUCCCACCACAUGAUGAUGCCUGAAGAGCCUUGGUUUUUUG [A6U A37G C56U] | 0.28 |
| GACCAUUCUGCCCUCAGAGCUCGAGAACAUCUUCGGAUGCAGAGGAGGCAGGCUUCGGUGGCGCGAUAGCGCCAACGUCCUCAACCUCCAAUGCCUCCCACCACAUGAUGAUGCCUGAAGAGCCUUGGUUUUUUG [A6U A95C] | -0.905 |
| GACCAUUCUGCCCUCAGAGCUCGAGAACUUCUUCGGAUGCAGAGGAGGCAGGCUUCGGUGGCGCGCUAGCGCCAACGUCCUCAACCUCCAAUGCAUCCCACCACAUGAUGAUGCGUUAAGAGCCUUGGUUUUUUG [A6U A29U A66C C115G G117U] | -6.19 |
| GACCAUUCUGCCCUCAGAGCUCGAGAACAUCUUCGGAUGCAGAGGAGGCUGGCUUCGGUGGCGCGAUAGCGCCAACGUCCUCAACCUCCAAUGCCUCCCACCACAUGAUGAUGCCUGAAGAGCCUUGGUUUUUUG [A6U A50U A95C] | -1.57 |
| GACCAUUCUGCCCUCAGAGCUCGAGAACAUCUUCGGAUGCAGAGGAGGCUGGCUUCGGUGGCGCGAUAGCGCCAACGUCCUCAACCUCCAAUGCAUCCCACCACAUGAUGAUGCCUGAAGAGCCUUGGUUUUUUG [A6U A50U] | -0.776 |
| GACCAUUCUGCCCUCAGAGCUCGAGAACUUCUUCGGAUGCAGAGGAGGCAGGCUUCGGUGGCGCGAUAGCGCCAACGUCCUCAACCUCCAAUGCAUCCCAACACAUGAUGAUGCCUGAACAGCCUUGGUUUUAUG [A6U A29U C101A G120C U133A] | -4.06 |
| GACCAUUCUGCCCUCAGAGCUCGAGAACUUCUUAGGAUGCAGAGGAGGCAGGCUUCGGUGGCGCGAUAUCGCCAACGUCCUCAACCUCCGAUGCUUCCCACCACAUGAUGAUGCCUGAAGAGCCUUGGUUUUUUG [A6U A29U C34A G69U A90G A95U] | -2.59 |
| GACCAUUCUGCCCUCAGAGCUCGAGAACGUCUUCGGAUGCAGAGGAGGCAGGCUUCGGUGUCGCGAUAGCGCCAACGUCCUCAACCUCAAAUGCAUCCCACCACAUGAUGAUGCCUGAAGGGCCUUGGUUUUUUG [A6U A29G G61U C89A A121G] | -0.882 |
| GACCAUUCUGCCCUCAGAGCUCGAGAACAUCUUCGGAUGCAGAGGAGGCAGGCUUCGGUGGCGCGAUAGCGCCAACGUCCUCAACCUCCAAUGCAUCCCACCACAUGAUGCUGCCUGAAGAGCCUUGGUUUUUUG [A6U A111C] | -0.0776 |
| GACCAUUCUGCCCUCAGAGCUCGAGAACAUCUUCGGAUGCAGAGGAGGCAGGCUUCGGUGGCGCGGUAGCGCCAACGUCCUCAAGCUCCAAUGCAUCCCACCACAUGAUGAUGCCUGAAGAGCCUUGGUUUUUUG [A6U A66G C85G] | -2.09 |
| GACCAUUCUGCCCUCAGAGCUCGAGAGCAUCUUCGGAUGCAGAGGAGGCAGGCUUCGGUGGCGCGAUAGCGCCAACGUCCUUAACCUCCAAUGCAUCCCACCACAUGAUUAUGCCUGAAGAGCCUUGGUUUUUUG [A6U A27G C82U G110U] | -2.67 |
| GACCAUUCUGCCCUCAGAGCUCGAGAACAUCUUCGGAUGCAGAGGAGGCAGGCUUCGGUGGCGCGAUAGCGCCAACGUCCUCUACCUCCAAUGCAUCCCACCACAUGAUGAUGCUUGAAGAGCCUUGGUUUUUUG [A6U A83U C115U] | -1.65 |
| GACCAUUAUGCACUCAGAGCUCGAGAACAUCUUCGGAUGCUGAGGAGGCAGGCUUCGGUGGCGCGAUAGCGCCAACGUACUCAACCUCAAAUGUAUCCCAUCACAUGAUGAUGCCGGAAGAGUCUUGGUUUUUUG [A6U C8A C12A A41U C79A C89A C94U C101U U116G C123U] | -6.77 |
| GACCAUUCUGCCCUCAGAGCUCGAGAACAUCUUCGGAUGCAGAGGAGGCAGGCUUCGGUGGCGCGAUAGCGCCCACGUCCUCAACCUCCAAUGCAUCCCACCACAUGAUGAUGCCUGAAGAGCCUUGGUUUUUUG [A6U A74C] | 0.0283 |
| GACCAUUCUGCCCUCAGAGCUCGAGAACAUCUUCGGAUGCAGAGGAGGCAGGCUUCGGUGGCGCGAUAGCGCCUACGUCCUCAACCUCCAAUGCAUCCCACCACAUGAUGAUGCCUGAAGAGCCUUGGUUUUUUG [A6U A74U] | 0.241 |
| GACCAUUCUGCCCUCAGAGCUCGAGAACAUCUUCGGAUGCAGAGGAGGCAGGCUUCGGUGGCGCGAUAGCGCCAACGUCCUCAACCUCCAUUGCAUCCCACCACAUGAUGAUGCCUGAAGCGCAUUGGUUUUUUG [A6U A91U A121C C124A] | -0.453 |
| GACCAUUCUGCCCUCAGAGCUCGAGAACAUCUUCGGAUGCAGAGGAGGCAGGCUUCGGUGGCGCGAUAGCGCCAACGUCCUCAACCUCCAAUGCAUCCCACCGCAUGAUGAUGCCUGAAGAGCCUUGGUUUUUUG [A6U A103G] | -4.63 |
| GACCAUUCUGCCCUCAGAGCUCGAGAACAUCUUCGGAUGCAGAGGCGGCAGGCUUCGGUGGCGCGAUAGCGCCAACGUCCUCAACCUCCAAUGCAUCCCACCACAUGAUGAUGCCUGAAGAGCCUUGGUUUUUUG [A6U A46C] | -0.0914 |
| GACCAUUCUGCCCUCAGAGCUCGAGAACAUCUUCGGAUGCAGAGGAGGCAGGCUUCGGUGGCGCGAUAGCGCCAACGUCCUCAACCUCCUAUGCAUCCCACCACAUGAUGAUGCCUGAAGAGCCUUGGUUUUUUG [A6U A90U] | -0.93 |
| GACCAUUCUGCCCUCAGAGCUCGAGAACAUCUUCGGGUGCAGAGGAGGCAGGCUUCGGUGGCGCGAUAGCGCCAACGUCCUCAACCUCCAAUGCAUCCCACCACAUGAUGAUGCCUGAAGAGCCUUCGUUUUUUU [A6U A37G G127C G135U] | -1.84 |
| GACCAUUCUGCCCUCAGAGCUCGAGAACAUCUUCGGAUGCAGAGGAGGCGGGCUUCGGUGGCGCGAUAGCGCCAACGUCCUCAACCUCCAAUGCAUCCCACCACAUGAUGAUGCCUAAAGAGCCUUGGUUUUUUG [A6U A50G G117A] | -1.14 |
